Results taken from PMC10842004 (Journal of molecular biology, 2023).

Molecular target: ubiquitin (UniProt P0CG48 1-76)
Assay: NMR titration

B1: RAD23A UBA1 domain (aa 160–205) (domain or fragment)
chain: not shown
  binding result: binds
